The target in this assay is orphan seven transmembrane domain receptor APJ (human) (UniProt P35414). The assay is described as follows: cell-based or functional assay.

For one substance, cell-cell fusion (luciferase activity), QT6 target cells with CD4 and APJ (% of that observed with CXCR4) results are on record in US6475718.

Chain of UniProt P35414 (P35414 whole entry I109M/F110L, the tested form may be a part): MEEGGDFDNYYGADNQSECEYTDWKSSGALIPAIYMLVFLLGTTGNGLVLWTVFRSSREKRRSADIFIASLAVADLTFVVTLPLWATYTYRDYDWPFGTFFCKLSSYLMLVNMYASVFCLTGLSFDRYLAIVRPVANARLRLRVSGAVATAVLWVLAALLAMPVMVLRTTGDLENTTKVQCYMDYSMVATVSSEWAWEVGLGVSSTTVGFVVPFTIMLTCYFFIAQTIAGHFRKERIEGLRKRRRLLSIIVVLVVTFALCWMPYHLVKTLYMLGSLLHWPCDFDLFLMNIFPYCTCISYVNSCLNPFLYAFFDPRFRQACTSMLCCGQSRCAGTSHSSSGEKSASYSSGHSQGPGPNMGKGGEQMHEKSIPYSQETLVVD

“HIV-1 89.6 env protein (from UniProt Q73372 32-853)” had a cell-cell fusion (luciferase activity), QT6 target cells with CD4 and APJ (% of that observed with CXCR4) greater than 70.
